Like-named read-outs stand apart in the source and are kept apart here.
Legend:
mArtemin-MMH [1] = target: T1, mArtemin-MMH (mouse); assay: blocking ELISA, 150 pM msARTN.mmh binding to plate-coated hGFRa3.hFc
T1 chain: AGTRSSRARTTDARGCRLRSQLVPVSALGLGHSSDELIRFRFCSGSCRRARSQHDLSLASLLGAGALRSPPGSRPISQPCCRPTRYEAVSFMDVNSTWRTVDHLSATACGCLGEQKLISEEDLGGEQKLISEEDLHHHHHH

mArtemin-MMH [2] = target: T1, mArtemin-MMH; assay: SPR Biacore T200, mArtemin-MMH captured by anti-myc mAb, mAb injected, 25 C
Method: (§1) The equilibrium dissociation constant (KD) for Artemin binding to each of Artemin monoclonal antibodies (mAbs) H4H33331P, H4H33335P, H4H33336P, and H4H33349P was determined using a real-time surface plasmon resonance Biacore T200 biosensor. All binding studies were performed in 10 mM HEPES, 150 mM NaCl, 3 mM EDTA, and 0.05% v/v Surfactant Tween-20, pH 7.4 (HBS-ET) running buffer at 25° C. The Biacore CM4 sensor chip surface was first derivatized by amine coupling with anti-myc mAb to capture hArtemin-MMH, MfArtemin-MMH, or mArtemin-MMH. Different concentrations of Artemin mAbs (60-2.2 nM, 3-fold serial dilution) prepared in […] running buffer were injected over the Artemin-captured surfaces for 3 min at a flow rate of 50 μL/min and their dissociation in HBS-ET running buffer was monitored for 5 minutes. At the end of each cycle, the Artemin-captured surfaces were regenerated using a 6 sec injection of 20 mM phosphoric acid.
(§2) The association rate (kₐ) and dissociation rate (kd) were determined by fitting the real-time binding sensorgrams to a 1:1 binding model with mass transport limitation using Scrubber 2.0c curve-fitting software. Binding dissociation equilibrium constant (KD) and dissociative half-life (t½) were calculated from the kinetic rates as: KD (M)=kd/kₐ, and t_{1/2} (min)=[In2/(60*kd)].

hArtemin-MMH [3] = target: T2, hArtemin-MMH (human); assay: SPR Biacore T200, hArtemin-MMH captured by anti-myc mAb, mAb injected, 25 C
T2 chain: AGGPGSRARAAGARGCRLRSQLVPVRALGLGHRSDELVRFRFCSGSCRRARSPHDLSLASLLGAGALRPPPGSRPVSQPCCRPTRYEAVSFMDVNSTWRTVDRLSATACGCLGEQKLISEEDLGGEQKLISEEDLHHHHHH
Method: as §1, §2

[4] = target: MfArtemin-MMH (cynomolgous monkey (Macaca fascicularis)); assay: cell-based or functional assay
[5] = target: MfArtemin-MMH (cynomolgous monkey (Macaca fascicularis)); assay: blocking ELISA, 400 pM mfARTN.mmh binding to plate-coated hGFRa3.hFc
[6] = target: MfArtemin-MMH (cynomolgous monkey (Macaca fascicularis)); assay: SPR Biacore T200, MfArtemin-MMH captured by anti-myc mAb, mAb injected, 25 C
mArtemin-MMH [7] = target: T1, mArtemin-MMH; assay: cell-based or functional assay
hArtemin-MMH [8] = target: T2, hArtemin-MMH; assay: cell-based or functional assay
hArtemin-MMH [9] = target: T2, hArtemin-MMH; assay: blocking ELISA, 75 pM hARTN.mmh binding to plate-coated hGFRa3.hFc
MfArtemin-MMH [10] = target: T3, MfArtemin-MMH (cynomolgous monkey (Macaca fascicularis)); assay: BLI (Octet HTX), mAb captured on AHC tips, artemin at 3.75 nM, 25 C
T3 construct: also called mfARTN.mmh; mfARTN (A108-G22).mmh
T3 chain: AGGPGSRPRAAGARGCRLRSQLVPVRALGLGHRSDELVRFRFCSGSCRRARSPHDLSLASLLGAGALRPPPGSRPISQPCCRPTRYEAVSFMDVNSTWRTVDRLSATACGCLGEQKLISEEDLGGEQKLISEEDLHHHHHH
Method: (§3) The entire experiment was performed at 25° C. in 10 mM HEPES, 150 mM NaCl, 3 mM EDTA, 0.02% NaN3 and 0.05% v/v Surfactant Tween-20, 1 mg/mL BSA, pH7.4 (HBS-EBT) buffer with the plate shaking at a speed of 1000 rpm. Different Artemin mAbs were first captured onto anti-human antibody (AHC) coated Octet biosensor tips (Fortebio Inc, #18-5064) by submerging the biosensor tips for 40 seconds in wells containing 2 μg/mL of Artemin mAb. […] All the Artemin and Artemin mAb samples were prepared in HBS-EBT buffer. The real-time binding response was monitored during the entire course of the experiment and the binding response at the end of every step was recorded.

mArtemin-MMH [11] = target: T1, mArtemin-MMH; assay: as above
Method: as §3

hArtemin-MMH [12] = target: T2, hArtemin-MMH; assay: as above
Method: as §3

MfArtemin-MMH [13] = target: T3, MfArtemin-MMH; assay: BLI (Octet HTX), mAb captured on AHC tips, artemin at 7.5 nM, 25 C
Method: as §3

mArtemin-MMH [14] = target: T1, mArtemin-MMH; assay: as above
Method: as §3

hArtemin-MMH [15] = target: T2, hArtemin-MMH; assay: as above
Method: as §3

MfArtemin-MMH [16] = target: T3, MfArtemin-MMH; assay: blocking ELISA, antibody blocks 400 pM mfARTN.mmh binding to plate-coated hGFRa3.hFc
Method: (§4) Experiments were carried out using the following procedures. Plates were coated with hGFRa3.hFc at 2 μg/ml in PBS on a 96-well microtiter plate at 4° C. overnight for all three assays. […] In other microtiter plates, a constant amount of either 75 pM hARTN.mmh, 400 pM mfARTN.mmh, or 150 pM msARTN.mmh were separately bound with anti-ARTN antibodies and an irrelevant IgG4 antibody control at a serial dilution series from 0.0017 nM to 100 nM in PBS+0.5% BSA. After a one-hour incubation, the mixture solutions were transferred to microtiter plates coated with hGFRa3.hFc. After one hour of incubation at RT, the wells were washed with PBST, and plate-bound ARTN was detected with an anti-penta-His antibody conjugated with horseradish peroxidase (HRP) (Qiagen). The plates were then developed using TMB substrate solution (BD Biosciences, #555214) according to manufacturer's recommendation and absorbance at 450 nm was measured on a Victor X5 plate reader.
(§5) Binding data were analyzed using a sigmoidal dose-response model within Prism™ software (GraphPad). […] If the calculated IC50 value was below the LLOA, less than LLOA was reported. Percent blocking at 100 nM antibody was calculated based on the background-corrected binding signal observed at the highest antibody concentration tested using the formula listed below and reported for all tested antibodies: […]

hArtemin-MMH [17] = target: T2, hArtemin-MMH; assay: blocking ELISA, antibody blocks 75 pM hARTN.mmh binding to plate-coated hGFRa3.hFc
Method: as §4, §5

MfArtemin-MMH [18] = target: T3, MfArtemin-MMH; assay: BLI (Octet HTX), mAb captured on AHC tips, artemin at 30 nM, 25 C
Method: as §3

mArtemin-MMH [19] = target: T1, mArtemin-MMH; assay: as above
Method: as §3

hArtemin-MMH [20] = target: T2, hArtemin-MMH; assay: as above
Method: as §3

MfArtemin-MMH [21] = target: T3, MfArtemin-MMH; assay: BLI (Octet HTX), mAb captured on AHC tips, artemin at 15 nM, 25 C
Method: as §3

mArtemin-MMH [22] = target: T1, mArtemin-MMH; assay: as above
Method: as §3

hArtemin-MMH [23] = target: T2, hArtemin-MMH; assay: as above
Method: as §3

MfArtemin-MMH [24] = target: T3, MfArtemin-MMH; assay: cell-based or functional assay
MfArtemin-MMH [25] = target: T3, MfArtemin-MMH; assay: SPR Biacore T200, MfArtemin-MMH captured by anti-myc mAb, mAb injected, 25 C
Method: as §1, §2

mArtemin-MMH [26] = target: T1, mArtemin-MMH; assay: blocking ELISA, antibody blocks 150 pM msARTN.mmh binding to plate-coated hGFRa3.hFc
Method: as §4, §5

Isotype Control mAb (antibody)
% Blocking with 100 nM Ab (mArtemin-MMH [1]): -31% | 60 nM Artemin mAb Bound (RU) (mArtemin-MMH [2]): 0 RU | 60 nM Artemin mAb Bound (RU) (hArtemin-MMH [3]): 0 RU | Max inhibition (%), SRE-luciferase reporter, 3 nM mfArtemin [4]: 10% | % Blocking with 100 nM Ab [5]: -28% | 60 nM Artemin mAb Bound (RU) [6]: 0 RU | Max inhibition (%), SRE-luciferase reporter, 1 nM mArtemin (mArtemin-MMH [7]): 1% | Max inhibition (%), SRE-luciferase reporter, 500 pM hArtemin (hArtemin-MMH [8]): 9% | % Blocking with 100 nM Ab (hArtemin-MMH [9]): -3%

B1: H4H33335P (antibody, human IgG4 S228P, kappa, V domains shown)
VH: EVQLVESGGGLVQPGGSLRLSCAASGFTFSSYDMHWVRQATGKGLEWVSTIDTAGDTYYPGSVKGRFTISRENAKNSLYLQMNSLRAGDTAVYYCARDGELELQGYFDLWGRGTLVTVSS
VL: DIQMTQSPSSLSASVGDRVTITCRASQIISIYLNWYQQKPGKAPKLLIYAASSLQSGVPSRFSGSGSGTDFTLTISSLQPEDFATYYCQQSYTTPLTFGGGTKVEIKR
notes: Fully human antibody; also called Artemin mAb; anti-ARTN antibody
Artemin Binding Response (nm) (MfArtemin-MMH [10]): 0 nm | Artemin Binding Response (nm) (mArtemin-MMH [11]): 0.02 nm | Artemin Binding Response (nm) (hArtemin-MMH [12]): 0.02 nm | Artemin Binding Response (nm) (MfArtemin-MMH [13]): 0 nm | Artemin Binding Response (nm) (mArtemin-MMH [14]): 0.05 nm | Artemin Binding Response (nm) (hArtemin-MMH [15]): 0.07 nm | % Blocking with 100 nM Ab (MfArtemin-MMH [16]): 71% | IC50 (MfArtemin-MMH [16]): 0.233 nM | % Blocking with 100 nM Ab (hArtemin-MMH [17]): 65% | IC50 (hArtemin-MMH [17]): 0.505 nM | 60 nM Artemin mAb Bound (RU) (mArtemin-MMH [2]): 3 RU | 60 nM Artemin mAb Bound (RU) (hArtemin-MMH [3]): 4 RU | Kd (hArtemin-MMH [3]): 2.22 nM | koff (hArtemin-MMH [3]): 0.00019 s⁻¹ | kon (hArtemin-MMH [3]): 85300 M⁻¹ s⁻¹ | t½ (hArtemin-MMH [3]): 1.02 h | Artemin Binding Response (nm) (MfArtemin-MMH [18]): 0.09 nm | Artemin Binding Response (nm) (mArtemin-MMH [19]): 0.08 nm | Artemin Binding Response (nm) (hArtemin-MMH [20]): 0.11 nm | Artemin Binding Response (nm) (MfArtemin-MMH [21]): 0.04 nm | Artemin Binding Response (nm) (mArtemin-MMH [22]): 0.07 nm | Artemin Binding Response (nm) (hArtemin-MMH [23]): 0.11 nm | Max inhibition (%), SRE-luciferase reporter, 3 nM mfArtemin (MfArtemin-MMH [24]): 100% | Max inhibition (%), SRE-luciferase reporter, 1 nM mArtemin (mArtemin-MMH [7]): 95% | Max inhibition (%), SRE-luciferase reporter, 500 pM hArtemin (hArtemin-MMH [8]): 100% | 60 nM Artemin mAb Bound (RU) (MfArtemin-MMH [25]): 3 RU | % Blocking with 100 nM Ab (mArtemin-MMH [26]): 63% | IC50 (mArtemin-MMH [26]): 0.0876 nM

Reference: patent US20240352111A1 (Regeneron, published 2024)
